Kd data for three molecules are collected here from patent publication CN113512113A (THE FIRST AFFILIATED HOSPITAL COLLEGE OF MEDICINE ZHEJIANG …, dated 2021).

In the assay the target is SARS-Cov-2的生物素化RBD(NC_045512) (SARS-CoV-2, UniProt P0DTC2 319-541).

A value given as a limit tells only on which side of the number the result lay.

B1: SW-A9 (antibody, V domains shown)
VH: QMQLVQSGPEVKKPGTSVKVSCKASGFTFTNSAMQWVRQARGQRLEWVGWIVVASGNANSARRFHDRVTITSDMSTSTAYLELSSLRSEDTAVYYCALNHCSNTTCLDGFDIWGQGTMVSVSS
VL: EIVLTQSPVTLSLSPGERATLSCRASQSVRNSLLAWYQQKPGQAPRLLIYAASSRATGIPDRFSGSGSGTDFTLTISRLEPEDFVVYYCQQHGSSPPWTFGQGTKVEFKR
For orientation: Kd means the constant that tells how readily two partners part at equilibrium. A low value points to higher affinity. Take B1: the Kd is less than 0.001 nM.

B2: SW-B1 (antibody, V domains shown)
VH: QVQLVQSGAEVKKPGASVKVSCTASGDTFTTYYMNWMRQAPGQGLEWMGIINPSGGSTSYAQKFQGRVTMTRDTSRSTVYMELSSLRSEDTAVYYCATPSLEEAEGGPQLAFDIWGQGTMVTVSS
VL: not shown
On to B2, for which binding was characterised by a dissociation constant (Kd) of 0.0943 nM.

B3: CZ-D7 (antibody, V domains shown)
VH: QVQLVQSGAEVKTPGSSVKVSCKASGGSFSNYAISWVRQAPGQGLEWMGRIIATLGISNYAQKFQGRVTMTADKSTSTAYMELSSLRSEDTAVYYCASPITNFGVLIEVDAFHIWGQGTMVTVSS
VL: EIVLTQSPFTLSLSPGERATLSCGASQSVSSSYLAWYQQKPGLAPRLLIYDGSSRATDIPDRFSGSGSGTDFTLTISRLEPEDFAMYYCQQYSTSPLTFGGGTKVEIKR
B3 returned a Kd of less than 0.001 nM.
